Experimental data taken from publication PMC3624988 (Developmental cell, 2013).

Molecular target: Flag:Jub (full length Ajuba LIM protein Jub, 1-729aa) (Drosophila, UniProt Q9VY77 1-728)
Assay: co-IP

Sequence of Flag:Jub (full length Ajuba LIM protein Jub, 1-729aa) (Q9VY77 whole entry): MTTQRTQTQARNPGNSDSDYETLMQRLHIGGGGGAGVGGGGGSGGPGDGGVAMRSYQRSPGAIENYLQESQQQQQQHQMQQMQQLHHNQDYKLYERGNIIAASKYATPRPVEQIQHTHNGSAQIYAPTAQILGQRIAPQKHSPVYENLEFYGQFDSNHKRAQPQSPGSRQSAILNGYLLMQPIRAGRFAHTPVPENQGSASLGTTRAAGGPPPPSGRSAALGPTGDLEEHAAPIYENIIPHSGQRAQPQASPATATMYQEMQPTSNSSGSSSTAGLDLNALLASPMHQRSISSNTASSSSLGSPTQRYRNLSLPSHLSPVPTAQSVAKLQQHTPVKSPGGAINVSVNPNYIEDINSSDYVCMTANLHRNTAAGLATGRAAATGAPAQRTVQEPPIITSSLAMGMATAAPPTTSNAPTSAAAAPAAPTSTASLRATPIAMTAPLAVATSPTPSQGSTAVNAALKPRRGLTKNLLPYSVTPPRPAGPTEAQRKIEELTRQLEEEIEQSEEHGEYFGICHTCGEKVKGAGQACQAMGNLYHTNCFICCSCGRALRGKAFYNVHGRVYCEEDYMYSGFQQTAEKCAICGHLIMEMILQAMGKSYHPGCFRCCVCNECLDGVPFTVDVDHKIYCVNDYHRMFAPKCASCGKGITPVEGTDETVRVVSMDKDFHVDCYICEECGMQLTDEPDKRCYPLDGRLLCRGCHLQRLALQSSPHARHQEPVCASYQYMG

Row | fold change of binding with Ras-MAPK activation against without [fold] | Binder
1 | 2 | Myc:Wts (Myc-tagged Warts) (enzyme, Drosophila, UniProt Q9VA38 1-1105, looked up) MHPAGEKRGGRPNDKYTAEALESIKQDLTRFEVQNNHRNNQNYTPLRYTATNGRNDALTPDYHHAKQPMEPPPSASPAPDVVIPPPPAIVGQPGAGSISVSGVGVGVVGVANGRVPKMMTALMPNKLIRKPSIERDTASSHYLRCSPALDSGAGSSRSDSPHSHHTHQPSSRTVGNPGGNGGFSPSPSGFSEVAPPAPPPRNPTACSAATPPPPVPPTSQAYVKRRSPALNNRPPAIAPPTQRGNSPVITQNGLKNPQQQLTQQLKSLNLYPGGGSGAVVEPPPPYLIQGGAGGAAPPPPPPSYTASMQSRQSPTQSQQSDYRKSPSSGIYSATSAGSPSPITVSLPPAPLAKPQPRVYQARSQQPIIMQSVKSTQVQKPVLQTAVAPQSPSSASASNSPVHVLAAPPSYPQKSAAVVQQQQQAAAAAHQQQHQHQQSKPPTPTTPPLVGLNSKPNCLEPPSYAKSMQAKAATVVQQQQQQQQQQQQVQQQQVQQQQQQQQQQLQALRVLQAQAQRERDQRERDQRERERDQQKLANGNPGRQMLPPPPYQSNNNNNSEIKPPSCNNNNIQISNSNLATTPPIPPAKYNNNSSNTGANSSGGSNGSTGTTASSSTSCKKIKHASPIPERKKISKEKEEERKEFRIRQYSPQAFKFFMEQHIENVIKSYRQRTYRKNQLEKEMHKVGLPDQTQIEMRKMLNQKESNYIRLKRAKMDKSMFVKLKPIGVGAFGEVTLVSKIDTSNHLYAMKTLRKADVLKRNQVAHVKAERDILAEADNNWVVKLYYSFQDKDNLYFVMDYIPGGDLMSLLIKLGIFEEELARFYIAEVTCAVDSVHKMGFIHRDIKPDNILIDRDGHIKLTDFGLCTGFRWTHNSKYYQENGNHSRQDSMEPWEEYSENGPKPTVLERRRMRDHQRVLAHSLVGTPNYIAPEVLERSGYTQLCDYWSVGVILYEMLVGQPPFLANSPLETQQKVINWEKTLHIPPQAELSREATDLIRRLCASADKRLGKSVDEVKSHDFFKGIDFADMRKQKAPYIPEIKHPTDTSNFDPVDPEKLRSNDSTMSSGDDVDQNDRTFHGFFEFTFRRFFDDKQPPDMTDDQAPVYV
2 | 3 | Sav:V5 (V5-tagged Salvador) (natural protein, Drosophila, UniProt Q9VCR6 1-608, looked up) MNYLTILLCNRKPTMLSRRNKEKSQHKEGVVGKYMKKDTPPDISVINVWSDQRAKKKSLQRCASTSPSCEFHPRSSSTSRNTYSCTDSQPDYYHARRAQSQMPLQQHSHSHPHSLPHPSHPHVRSHPPLPPHQFRASSNQLSQNSSNYVNFEQIERMRRQQSSPLLQTTSSPAPGAGGFQRSYSTTQRQHHPHLGGDSYDADQGLLSASYANMLQLPQRPHSPAHYAVPPQQQQHPQIHQQHASTPFGSTLRFDRAAMSIRERQPRYQPTSSPMQQQQQQQQQQQQQLQHTQLAAHLGGSYSSDSYPIYENPSRVISMRATQSQRSESPIYSNTTASSATLAVVPQHHHQGHLAVPSGSGGGSLSGSGRGGSSGSVRGASTSVQSLYVPPRTPPSAVAGAGGSANGSLQKVPSQQSLTEPEELPLPPGWATQYTLHGRKYYIDHNAHTTHWNHPLEREGLPVGWRRVVSKMHGTYYENQYTGQSQRQHPCLTSYYVYTTSAEPPKAIRPEASLYAPPTHTHNALVPANPYLLEEIPKWLAVYSEADSSKDHLLQFNMFSLPELEGFDSMLVRLFKQELGTIVGFYERYRRALILEKNRRAGQNQNQNQ
